What was measured:
[1] = molecular target: HIF1β (human (endogenous in LS174T and in patient renal tissue)) (UniProt P27540); assay: FRET or BRET; FuncOmap: Ef computed for each coincidence region of the two-site aFRET/FLIM images, HIF1β/HIF2α in ccRCC core B5; Otsu thresholding; Ef below 4% regarded as non-interactive
[2] = molecular target: HIF1β (human (endogenous in LS174T and in patient renal tissue)) (UniProt P27540); assay: FRET or BRET; FuncOmap: Ef computed for each coincidence region of the two-site aiFRET/FLIM images of tissue microarray cores (HIF1β/HIF2α: B7, A5; PD-1/PD-L1: B7, B5, A5); Otsu thresholding; Ef below 4% regarded as non-interactive
[3] = molecular target: HIF1β (human (endogenous in LS174T and in patient renal tissue)) (UniProt P27540); assay: FRET or BRET; two-site amplified FRET (aFRET) read by frequency-domain FLIM on PFA-fixed, permeabilised LS174T cells under hypoxia (1% O2, 48 h); donor ATTO488 on anti-HIF-1β, acceptor Alexa594 (TSA) on anti-HIF-2α; Ef below 4% regarded as non-interactive
[4] = molecular target: HIF1β (human (endogenous in LS174T and in patient renal tissue)) (UniProt P27540); assay: FRET or BRET; two-site aiFRET read by frequency-domain FLIM on tissue microarray cores (normal renal tissue B7, ccRCC cores A1 and A2); median Ef over 10-20 hand-picked regions of interest; donor ATTO488 on HIF1β or PD-1, acceptor Alexa594 (TSA) on HIF2α or PD-L1; Ef below 4% regarded as non-interactive
[5] = molecular target: PD-1 (human (endogenous in patient renal tissue)) (UniProt Q15116); assay: FRET or BRET; FuncOmap: Ef computed for each coincidence region of the two-site aiFRET/FLIM images of tissue microarray cores (HIF1β/HIF2α: B7, A5; PD-1/PD-L1: B7, B5, A5); Otsu thresholding; Ef below 4% regarded as non-interactive
[6] = molecular target: PD-1 (human (endogenous in patient renal tissue)) (UniProt Q15116); assay: FRET or BRET; two-site aiFRET read by frequency-domain FLIM on tissue microarray cores (normal renal tissue B7, ccRCC cores A1 and A2); median Ef over 10-20 hand-picked regions of interest; donor ATTO488 on HIF1β or PD-1, acceptor Alexa594 (TSA) on HIF2α or PD-L1; Ef below 4% regarded as non-interactive

PD-L1, sequence (Q9NZQ7 19-290): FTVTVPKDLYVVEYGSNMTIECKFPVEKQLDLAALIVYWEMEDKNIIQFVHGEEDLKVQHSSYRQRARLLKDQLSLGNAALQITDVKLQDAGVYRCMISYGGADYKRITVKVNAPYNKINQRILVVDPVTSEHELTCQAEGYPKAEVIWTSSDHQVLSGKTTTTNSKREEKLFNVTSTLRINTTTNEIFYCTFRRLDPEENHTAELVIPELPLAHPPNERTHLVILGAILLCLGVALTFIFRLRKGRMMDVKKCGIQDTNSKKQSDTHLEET
PD-1 (human (endogenous in patient renal tissue)), sequence (Q15116 25-288): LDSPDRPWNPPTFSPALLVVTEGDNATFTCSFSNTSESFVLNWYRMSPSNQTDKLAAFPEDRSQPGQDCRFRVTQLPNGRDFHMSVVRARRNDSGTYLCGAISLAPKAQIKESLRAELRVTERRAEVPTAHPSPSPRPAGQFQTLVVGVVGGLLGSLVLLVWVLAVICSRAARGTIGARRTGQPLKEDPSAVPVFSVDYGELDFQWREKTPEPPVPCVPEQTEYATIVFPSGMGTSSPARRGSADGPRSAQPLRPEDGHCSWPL
HIF1β (human (endogenous in LS174T and in patient renal tissue)), sequence (P27540 whole entry): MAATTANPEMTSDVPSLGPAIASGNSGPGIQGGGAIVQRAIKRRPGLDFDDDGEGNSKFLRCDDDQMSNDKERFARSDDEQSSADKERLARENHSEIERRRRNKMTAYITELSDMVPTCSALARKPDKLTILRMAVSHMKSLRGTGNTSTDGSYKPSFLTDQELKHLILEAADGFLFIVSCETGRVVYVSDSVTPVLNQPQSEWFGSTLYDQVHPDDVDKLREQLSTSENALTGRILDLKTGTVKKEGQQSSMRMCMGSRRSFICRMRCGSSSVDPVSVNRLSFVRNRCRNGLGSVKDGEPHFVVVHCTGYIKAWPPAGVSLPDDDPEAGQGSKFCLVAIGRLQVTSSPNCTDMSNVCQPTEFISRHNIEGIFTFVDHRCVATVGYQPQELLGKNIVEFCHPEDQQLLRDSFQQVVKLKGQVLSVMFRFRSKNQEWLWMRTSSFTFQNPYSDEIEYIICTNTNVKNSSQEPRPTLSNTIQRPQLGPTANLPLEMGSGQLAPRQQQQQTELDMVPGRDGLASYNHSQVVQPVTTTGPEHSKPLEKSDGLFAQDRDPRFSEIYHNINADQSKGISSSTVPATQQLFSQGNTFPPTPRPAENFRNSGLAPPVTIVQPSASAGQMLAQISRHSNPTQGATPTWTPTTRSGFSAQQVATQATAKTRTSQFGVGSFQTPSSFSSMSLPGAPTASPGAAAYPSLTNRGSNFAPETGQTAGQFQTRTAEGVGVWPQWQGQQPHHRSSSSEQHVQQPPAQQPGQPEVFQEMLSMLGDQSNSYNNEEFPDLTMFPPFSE

In the case of “HIF2α (from UniProt Q99814 1-870) (natural protein)”, the Ef, core B5, region 61 [1] is reported as 0%, the Ef, core B5, region 80 [1] is reported as 0% and the Ef, core B5, region 103 [1] is reported as 0%. For the same substance, the Ef, core B5, region 140 [1] was 0%, the Ef, core B5, region 162 [1] was 0% and the Ef, core B5, region 167 [1] was 0%. The Ef, core B5, region 174 [1] was 0%, the Ef, core B5, region 198 [1] was 0% and the Ef, core B5, region 199 [1] was 0%. The Ef, core B5, region 220 [1] was 0%, the Ef, core B5, region 230 [1] was 0% and the Ef, core B5, region 242 [1] was 0%. The Ef, core B5, region 246 [1] was 0%, the Ef, core B5, region 277 [1] was 0% and the Ef, core B5, region 318 [1] was 0%. It also gave an Ef, core B5, region 431 [1] of 0%, an Ef, core B5, region 452 [1] of 0% and an Ef, core B5, region 585 [1] of 0%. It also gave an Ef, core B5, region 586 [1] of 0%, an Ef, core B5, region 592 [1] of 0% and an Ef, core B5, region 600 [1] of 0%. The Ef, core B5, region 601 [1] was 0%, the Ef, core B5, region 632 [1] was 0% and the Ef, core B5, region 659 [1] was 0%. The Ef, core B5, region 669 [1] was 0%, the Ef, core A5, region 12 [2] was 12.2% and the Ef, core A5, region 78 [2] was 13.5%. It also gave an Ef, core A5, region 83 [2] of 12.7%, an Ef, core A5, region 131 [2] of 13.5% and an Ef, core A5, region 168 [2] of 12.2%. For the same substance, the Ef, core A5, region 187 [2] was 12.2%, the Ef, core A5, region 189 [2] was 16% and the Ef, core A5, region 235 [2] was 15.4%. The Ef, core A5, region 276 [2] was 12.2%, the Ef, core A5, region 294 [2] was 13.5% and the Ef, core A5, region 383 [2] was 16%. For the same substance, the Ef, core A5, region 400 [2] was 12.2%, the Ef, core A5, region 531 [2] was 13.5% and the Ef, core A5, region 619 [2] was 13.5%. For the same substance, the Ef, core A5, region 679 [2] was 12.2%, the Ef, core A5, region 733 [2] was 11.4% and the Ef, core A5, region 817 [2] was 13.5%. The Ef, core A5, region 822 [2] was 12.2%, the Ef, core A5, region 826 [2] was 12.2% and the Ef, core A5, region 829 [2] was 16%. It also gave an Ef, core A5, region 1273 [2] of 12.2%, an Ef, core A5, region 1299 [2] of 16% and an Ef, core A5, region 1302 [2] of 19.8%. It also gave an Ef, core A5, region 1307 [2] of 21.1%, an Ef, core A5, region 1308 [2] of 14.8% and an Ef, core B7, region 64 [2] of 0%. It also gave an Ef, core B7, region 231 [2] of 0%, an Ef, core B7, region 402 [2] of 0% and an Ef, core B7, region 632 [2] of 0%. It also gave an Ef, core B7, region 633 [2] of 0%, an Ef, core B7, region 634 [2] of 0% and an Ef, core B7, region 635 [2] of 0%. For the same substance, the Ef, core B7, region 636 [2] was 0%, the Ef, core B7, region 637 [2] was 0% and the Ef, core B7, region 638 [2] was 0%. The Ef, core B7, region 639 [2] was 0%, the Ef, core B7, region 640 [2] was 0% and the Ef, core B7, region 641 [2] was 0%. For the same substance, the Ef, core B7, region 657 [2] was 0%, the Ef, core B7, region 662 [2] was 7.66% and the Ef, core B7, region 664 [2] was 0%. The Ef, core B7, region 672 [2] was 4.95%, the Ef, core B7, region 685 [2] was 0% and the Ef, core B7, region 686 [2] was 0%. It also gave an Ef, core B7, region 712 [2] of 0%, an Ef, core B7, region 719 [2] of 0% and an Ef, core B7, region 729 [2] of 0%. It also gave an Ef, core B7, region 754 [2] of 0%, an Ef, core B7, region 943 [2] of 0% and an Ef, core B7, region 950 [2] of 0%. The median FRET efficiency (hypoxia) [3] was 7.75%, the median Ef, ccRCC core A1 [4] was 13.6% and the median Ef, ccRCC core A2 [4] was 9.3%. For the same substance, the median Ef, normal tissue [4] was 6.7%.
With “PD-L1 (from UniProt Q9NZQ7 19-290) (ligand)” the Ef, core A5, region 57 [5] was 0%, the Ef, core A5, region 63 [5] was 10.9% and the Ef, core A5, region 92 [5] was 8.6%. For the same substance, the Ef, core A5, region 110 [5] was 8.34%, the Ef, core A5, region 186 [5] was 8.16% and the Ef, core A5, region 421 [5] was 5.03%. It also gave an Ef, core A5, region 448 [5] of 7.7%, an Ef, core A5, region 482 [5] of 9.31% and an Ef, core A5, region 505 [5] of 7.72%. The Ef, core A5, region 564 [5] was 8.82%, the Ef, core A5, region 639 [5] was 11.2% and the Ef, core A5, region 653 [5] was 12.1%. It also gave an Ef, core A5, region 812 [5] of 16.7%, an Ef, core A5, region 823 [5] of 9.22% and an Ef, core A5, region 929 [5] of 8.25%. The Ef, core A5, region 949 [5] was 6.49%, the Ef, core A5, region 1053 [5] was 12.9% and the Ef, core A5, region 1064 [5] was 10.6%. It also gave an Ef, core A5, region 1113 [5] of 4.28%, an Ef, core A5, region 1241 [5] of 6.86% and an Ef, core A5, region 1250 [5] of 10.1%. The Ef, core A5, region 1255 [5] was 8.24%, the Ef, core A5, region 1274 [5] was 8.32% and the Ef, core A5, region 1360 [5] was 6.13%. The Ef, core A5, region 1405 [5] was 12.4%, the Ef, core B5, region 81 [5] was 21.8% and the Ef, core B5, region 107 [5] was 30.6%. For the same substance, the Ef, core B5, region 176 [5] was 28.4%, the Ef, core B5, region 249 [5] was 23.6% and the Ef, core B5, region 261 [5] was 15.7%. It also gave an Ef, core B5, region 373 [5] of 24%, an Ef, core B5, region 546 [5] of 24.8% and an Ef, core B5, region 551 [5] of 16.4%. It also gave an Ef, core B5, region 586 [5] of 17%, an Ef, core B5, region 622 [5] of 23.1% and an Ef, core B5, region 774 [5] of 25.1%. It also gave an Ef, core B5, region 841 [5] of 29.4%, an Ef, core B5, region 930 [5] of 28.3% and an Ef, core B5, region 1104 [5] of 21.1%. It also gave an Ef, core B5, region 1155 [5] of 20.4%, an Ef, core B5, region 1187 [5] of 0% and an Ef, core B5, region 1246 [5] of 15.8%. The Ef, core B5, region 1288 [5] was 26.3%, the Ef, core B5, region 1500 [5] was 28.5% and the Ef, core B5, region 1612 [5] was 13.9%. For the same substance, the Ef, core B5, region 1772 [5] was 20.8%, the Ef, core B5, region 1811 [5] was 24% and the Ef, core B5, region 1878 [5] was 18.1%. It also gave an Ef, core B5, region 2043 [5] of 20.4%, an Ef, core B5, region 2232 [5] of 28.3% and an Ef, core B7, region 24 [5] of 21.5%. The Ef, core B7, region 67 [5] was 14.2%, the Ef, core B7, region 102 [5] was 16.1% and the Ef, core B7, region 197 [5] was 21.2%. The Ef, core B7, region 233 [5] was 48.4%, the Ef, core B7, region 299 [5] was 16.3% and the Ef, core B7, region 356 [5] was 20%. The Ef, core B7, region 384 [5] was 16.5%, the Ef, core B7, region 442 [5] was 19.1% and the Ef, core B7, region 548 [5] was 23.4%. It also gave an Ef, core B7, region 561 [5] of 12.8%, an Ef, core B7, region 648 [5] of 26.6% and an Ef, core B7, region 772 [5] of 14.2%. For the same substance, the Ef, core B7, region 905 [5] was 12%, the Ef, core B7, region 984 [5] was 22.3% and the Ef, core B7, region 1009 [5] was 28.9%. The Ef, core B7, region 1273 [5] was 23.4%, the Ef, core B7, region 1454 [5] was 29.9% and the Ef, core B7, region 1657 [5] was 18.1%. It also gave an Ef, core B7, region 1711 [5] of 25.7%, an Ef, core B7, region 1750 [5] of 18.1% and an Ef, core B7, region 1861 [5] of 27.4%. The Ef, core B7, region 1919 [5] was 14.7%, the Ef, core B7, region 1932 [5] was 26.4% and the Ef, core B7, region 1973 [5] was 28.4%. For the same substance, the median Ef, normal tissue [6] was 5.24%.

Reference: article PMC11524007
